Laboratory results as given in US20240317834A1, “COMPOSITIONS AND METHODS FOR NEUROLOGICAL DISEASES” (CODA BIOTHERAPEUTICS, INC., priority 2020, published 2024).
Changes are numbered by the printed parent chain. Names may count otherwise.

System: Lenti-X 293T cells
Test: YFP fluorescence quenching anion reporter plate reader assay of engineered receptors stimulated with acetylcholine or a non-native ligand
Type: cell-based
Details: for percent quench of YFP fluorescence, 10 uM ach: acetylcholine 10 uM; for percent quench of YFP fluorescence, 100 uM ach: acetylcholine 100 uM; for percent quench of YFP fluorescence, 1 mM ach: acetylcholine 1 mM; for percent quench of YFP fluorescence, 3 mM ach: acetylcholine 3 mM
From the text: To screen these mutant LGICs for those having novel response profiles to ligands, an anion reporter assay was developed to assess the function of the LGICs in a high throughput format. In this assay, cells expressing a YFP reporter whose fluorescence is quenched in the presence of anion are transfected with DNA encoding the channel of interest. Upon exposure to ligand, channels that are activated will flux anion, resulting in a dose-dependent quench of the YFP that can be detected on a plate reader. The greater the quench signal (i.e., the more positive the value), the higher the ligand activity on the receptor is.
Lenti-X 293T cells (LX293T, Clontech) were maintained in DMEM containing 10% FBS and 1% penicillin/streptomycin (Invitrogen). […] Two days before assay, cells were split at a density of 20,000 cells/well in a 96-well tissue culture plate coated with poly-d lysine (Thermo Scientific). The next day, the cells were transiently transfected with 0.1 μg of DNA per well using standard Fugene protocol (Promega). On the day of assay, cells were washed 2 times in 1× extracellular solution (1×ECS: 140 mM NaCl, 5 mM KCl, 1 mM MgCl2, 2 mM CaCl2), 10 mM HEPES, 10 mM glucose, pH 7.2, mOsms 300). After the last wash, 100 μL of 1×ECS was added to the wells and the plate was incubated at 37° C. for 30 min. While incubating the plate, the drugs were diluted to a 2× concentration in 1×ECS-NaI (same components as 1×ECS except the 140 mM NaCl was replaced by 140 mM NaI). The plates were then read on a Flexstation3 (Molecular Devices). Each well, 8 wells at a time, of the plate is read for 2 min using a Flexstation3 (Molecular Devices) as follows: 1) a baseline YFP fluorescence is read for 17 sec, 2) 100 μL of ligand is added, and 3) the changes in YFP fluorescence are then measured every 1.3 sec for 1 minute and 43 seconds. The percent quench is calculated from the average fluorescence of the last 10 seconds of the read divided by the baseline average of the first 15 seconds prior to the ligand addition.
FIGS. 1A-1J provide heat maps of the percent quench of YFP fluorescence following stimulation by various doses of either acetylcholine or the non-native ligand as indicated in the Figures. CODA71 (SEQ ID NO: 33) was used as a control, and CODA75 (SEQ ID NO: 29, a non-responding chimeric engineered receptor) was used as the negative control. Quenching of the fluorescence signal, as indicated by blue shaded cells, indicate the level of engineered receptor activation by the non-native ligand at that concentration.

B1: CODA238: engineered chimeric LGIC receptor, R101W in SEQ ID NO: 33 (protein)
chain: MRCSPGGVWLALAASLLHVSLQGEFQRKLYKELVKNYNPLERPVANDSQPLTVYFSLSLLQIMDVDEKNQVLTTNIWLQMSWTDHYLQWNVSEYPGVKTVWFPDGQIWKPDILLYNSADERFDATFHTNVLVNSSGHCQYLPPGIFKSSCPMDLKNFPMDVQTCKLKFGSWSYGGWSLDLQMQEADISGYIPNGEWDLVGIPGKRSERFYECCKEPYPDVTFTVTMRRRMGYYLIQMYIPSLLIVILSWISFWINMDAAPARVGLGITTVLTMTTQSSGSRASLPKVSYVKAIDIWMAVCLLFVFSALLEYAAVNFVSRQHKELLRFRRKRRHHKSPMLNLFQEDEAGEGRFNFSAYGMGPACLQAKDGISVKGANNSNTTNPPPAPSKSPEEMRKLFIQRAKKIDKISRIGFPMAFLIFNMFYWIIYKIVRREDVHNQ
modifications: synthetic sequence of chimeric LGIC
- YFP fluorescence quenching using CNL001 (1 nM CNL001, first column): 32.42%
- YFP fluorescence quenching using CNL001 (1 nM CNL001, second column): 54.768%
- YFP fluorescence quenching using TC-5619/Bradanicline (3 nM brd): 74.7%
- YFP fluorescence quenching using Varenicline (3 nM var, first column): 17.896
- YFP fluorescence quenching using Varenicline (3 nM var, second column): 12.564
- YFP fluorescence quenching using CNL001 (10 nM CNL001, first column): 75.149%
- YFP fluorescence quenching using CNL001 (10 nM CNL001, second column): 75.339%
- YFP fluorescence quenching using TC-5619/Bradanicline (30 nM brd): 76.78%
- YFP fluorescence quenching using Facinicline (30 nM fac): −19.61
- YFP fluorescence quenching using Varenicline (30 nM var, first column): 16.263
- YFP fluorescence quenching using Varenicline (30 nM var, second column): 22.117
- YFP fluorescence quenching using CNL001 (50 nM CNL001, first column): 75.881%
- YFP fluorescence quenching using CNL001 (50 nM CNL001, second column): 77.844%
- YFP fluorescence quenching using ABT-126 (50 nM abt): −14.97%
- YFP fluorescence quenching using CNL001 (100 nM CNL001, first column): 78%
- YFP fluorescence quenching using CNL001 (100 nM CNL001, second column): 78.575%
- YFP fluorescence quenching using CNL002 (100 nM CNL002): 2.95%
- YFP fluorescence quenching using ABT-126 (100 nM abt): −14.66%
- YFP fluorescence quenching using AZD-0328 (100 nM azd0328): 22.94%
- YFP fluorescence quenching using ABT-126 (300 nM abt): −16.35%
- YFP fluorescence quenching using AZD-0328 (300 nM azd0328): 75.38%
- YFP fluorescence quenching using TC-5619/Bradanicline (300 nM brd): 77.01%
- YFP fluorescence quenching using Facinicline (300 nM fac): 76.54
- YFP fluorescence quenching using Varenicline (300 nM var, first column): 77.492
- YFP fluorescence quenching using Varenicline (300 nM var, second column): 79.056
- YFP fluorescence quenching using Varenicline (500 nM var, first column): 80.186
- YFP fluorescence quenching using Varenicline (500 nM var, second column): 80.065
- YFP fluorescence quenching using CNL001 (1 uM CNL001, first column): 81.126%
- YFP fluorescence quenching using CNL001 (1 uM CNL001, second column): 79.482%
- YFP fluorescence quenching using CNL002 (1 uM CNL002): 67.93%
- YFP fluorescence quenching using ABT-126 (1 uM abt): 50.02%
- YFP fluorescence quenching using TC-6987 (1 uM tc6987): 72.47
- YFP fluorescence quenching using Varenicline (1 uM var, first column): 81.263
- YFP fluorescence quenching using Varenicline (1 uM var, second column): 80.702
- YFP fluorescence quenching using TC-6987 (10 uM tc6987): 72.04
- YFP fluorescence quenching using CNL002 (30 uM CNL002): 73.02%
- YFP fluorescence quenching using AZD-0328 (30 uM azd0328): 81.8%
- YFP fluorescence quenching using Facinicline (30 uM fac): 87.94
- YFP fluorescence quenching using TC-6987 (500 uM tc6987): 76.56
- percent quench of YFP fluorescence, 10 uM ach: −16.58%
- percent quench of YFP fluorescence, 100 uM ach: 75.18%
- percent quench of YFP fluorescence, 1 mM ach: 78.99%
- percent quench of YFP fluorescence, 3 mM ach: 75.74%

B2: CODA282: engineered chimeric LGIC receptor, Y115D in SEQ ID NO: 33 (protein)
chain: B1 chain with W101R, Y115D
modifications: synthetic sequence of chimeric LGIC
- YFP fluorescence quenching using CNL001 (1 nM CNL001, first column): −15.837%
- YFP fluorescence quenching using CNL001 (1 nM CNL001, second column): −6.519%
- YFP fluorescence quenching using TC-5619/Bradanicline (1 nM brd): −0.54%
- YFP fluorescence quenching using TC-5619/Bradanicline (3 nM brd): −7.22%
- YFP fluorescence quenching using Varenicline (3 nM var, first column): 2.111
- YFP fluorescence quenching using Varenicline (3 nM var, second column): −12.265
- YFP fluorescence quenching using CNL001 (10 nM CNL001, first column): −4.862%
- YFP fluorescence quenching using CNL001 (10 nM CNL001, second column): −8.244%
- YFP fluorescence quenching using TC-5619/Bradanicline (10 nM brd): −2.82%
- YFP fluorescence quenching using TC-5619/Bradanicline (30 nM brd): −16.67%
- YFP fluorescence quenching using Facinicline (30 nM fac): 10.17
- YFP fluorescence quenching using Varenicline (30 nM var, first column): −4.433
- YFP fluorescence quenching using Varenicline (30 nM var, second column): −6.153
- YFP fluorescence quenching using CNL001 (50 nM CNL001, first column): −3.807%
- YFP fluorescence quenching using CNL001 (50 nM CNL001, second column): −2.871%
- YFP fluorescence quenching using ABT-126 (50 nM abt): −21.22%
- YFP fluorescence quenching using CNL001 (100 nM CNL001, first column): −7.924%
- YFP fluorescence quenching using CNL001 (100 nM CNL001, second column): 2.11%
- YFP fluorescence quenching using CNL002 (100 nM CNL002): −9.7%
- YFP fluorescence quenching using ABT-126 (100 nM abt): −19.7%
- YFP fluorescence quenching using AZD-0328 (100 nM azd0328): 3.19%
- YFP fluorescence quenching using TC-5619/Bradanicline (100 nM brd): −0.02%
- YFP fluorescence quenching using Facinicline (100 nM fac): 24.77
- YFP fluorescence quenching using ABT-126 (300 nM abt): −15.55%
- YFP fluorescence quenching using AZD-0328 (300 nM azd0328): 4.79%
- YFP fluorescence quenching using TC-5619/Bradanicline (300 nM brd): −12.37%
- YFP fluorescence quenching using Facinicline (300 nM fac): 51.04
- YFP fluorescence quenching using Varenicline (300 nM var, first column): −0.861
- YFP fluorescence quenching using Varenicline (300 nM var, second column): −1.308
- YFP fluorescence quenching using Varenicline (500 nM var, first column): 0.733
- YFP fluorescence quenching using Varenicline (500 nM var, second column): −4.633
- YFP fluorescence quenching using CNL001 (1 uM CNL001, first column): 11.047%
- YFP fluorescence quenching using CNL001 (1 uM CNL001, second column): 8.04%
- YFP fluorescence quenching using CNL002 (1 uM CNL002): −8.37%
- YFP fluorescence quenching using ABT-126 (1 uM abt): −14.31%
- YFP fluorescence quenching using TC-5619/Bradanicline (1 uM brd): 31.23%
- YFP fluorescence quenching using TC-6987 (1 uM tc6987): 13.01
- YFP fluorescence quenching using Varenicline (1 uM var, first column): −4.512
- YFP fluorescence quenching using Varenicline (1 uM var, second column): 0.02
- YFP fluorescence quenching using Facinicline (10 uM fac): 79.76
- YFP fluorescence quenching using TC-6987 (10 uM tc6987): 14.73
- YFP fluorescence quenching using CNL002 (30 uM CNL002): 3.4%
- YFP fluorescence quenching using AZD-0328 (30 uM azd0328): 76.78%
- YFP fluorescence quenching using Facinicline (30 uM fac): 81.7
- YFP fluorescence quenching using TC-6987 (500 uM tc6987): 14.29
- percent quench of YFP fluorescence, 30 nM TC-6683 (TC-6683 30 nM): 0.365%
- percent quench of YFP fluorescence, 300 nM TC-6683 (TC-6683 300 nM): −6.865%
- percent quench of YFP fluorescence, 3 uM TC-6683 (TC-6683 3 uM): −4.927%
- percent quench of YFP fluorescence, 30 uM TC-6683 (TC-6683 30 uM): −11.259%
- percent quench of YFP fluorescence, 100 uM TC-6683 (TC-6683 100 uM): −11.894%
- percent quench of YFP fluorescence, 10 uM ach: 6.81%
- percent quench of YFP fluorescence, 100 uM ach: 1.19%
- percent quench of YFP fluorescence, 1 mM ach: −14.05%
- percent quench of YFP fluorescence, 3 mM ach: 2.37%
